The values below come from paper PMC7494870, “Arrangement and symmetry of the fungal E3BP-containing core of the pyruvate dehydrogenase complex” (Nature Communications, 2020).

The target of series [1] is T1, N. crassa PX (30-426), His-tagged, separately expressed (N. crassa, UniProt Q7RWS2 30-426).
T1 construct: Protein X (PX), Neurospora crassa, residues 30-426 of uniprot Q7RWS2; His6 tag is cleavable with TEV; protein was either cleaved with TEV or eluted with imidazole depending on the purpose; also called full-length PX; source: E. coli Rosetta2 (DE3), pRSET vector, single expression, Ni-NTA
T1 sequence (looked up): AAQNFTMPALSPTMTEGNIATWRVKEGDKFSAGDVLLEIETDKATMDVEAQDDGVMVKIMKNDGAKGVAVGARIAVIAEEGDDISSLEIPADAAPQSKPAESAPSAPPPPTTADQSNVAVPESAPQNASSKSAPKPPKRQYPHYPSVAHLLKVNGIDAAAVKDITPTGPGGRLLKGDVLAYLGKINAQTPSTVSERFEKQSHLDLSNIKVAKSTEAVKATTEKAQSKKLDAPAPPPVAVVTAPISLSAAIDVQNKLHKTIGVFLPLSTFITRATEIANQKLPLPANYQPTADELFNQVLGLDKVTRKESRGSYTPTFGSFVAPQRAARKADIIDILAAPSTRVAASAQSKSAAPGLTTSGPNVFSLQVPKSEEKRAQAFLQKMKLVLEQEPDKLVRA
Briefly: pull-down; separately expressed tE2 and His-tagged PX variants, brief incubation, co-purified by Ni-NTA affinity.

Series [2] concerns the molecule itself. Briefly: cryo-EM structure; single-particle cryo-EM of the reconstituted tE2 + PX30 recombinant subcomplex, icosahedral symmetry.
Series [3] deals with the molecule itself. The series can be described thus: cryo-EM structure; single-particle cryo-EM of the co-expressed tE2 + PX261 subcomplex, icosahedral symmetry.
Series [4] has as its target T2, Neurospora crassa protein X (endogenous, in the native PDC) (N. crassa (endogenous in N. crassa …, UniProt Q7RWS2 1-426)).
T2 construct: Protein X (PX) of the pyruvate dehydrogenase complex, Neurospora crassa, uniprot Q7RWS2, locus NCU00050; Forms trimers inside the E2 core; also called PX; X-component; source: endogenous, PDC purified from N. crassa mitochondria (DDM lysis, sucrose cushion, sucrose gradient, SEC)
T2 sequence (looked up): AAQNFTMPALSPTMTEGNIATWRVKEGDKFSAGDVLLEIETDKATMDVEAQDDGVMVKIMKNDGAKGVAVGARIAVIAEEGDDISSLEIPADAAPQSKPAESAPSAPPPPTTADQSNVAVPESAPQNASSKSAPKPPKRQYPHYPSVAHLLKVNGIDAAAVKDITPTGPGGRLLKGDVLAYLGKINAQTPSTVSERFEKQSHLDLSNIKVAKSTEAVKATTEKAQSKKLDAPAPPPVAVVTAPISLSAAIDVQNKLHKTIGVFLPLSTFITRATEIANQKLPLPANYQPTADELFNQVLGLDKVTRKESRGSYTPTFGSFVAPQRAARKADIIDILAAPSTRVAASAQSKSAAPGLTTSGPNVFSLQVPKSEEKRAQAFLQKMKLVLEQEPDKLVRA
Briefly: cryo-EM structure; single-particle cryo-EM of intact native PDC purified from N. crassa mitochondria; icosahedral and tetrahedral (classes X, Y) reconstructions. Particulars: both partners purified.

Series [5] deals with the molecule itself. Described as above.

B1: N. crassa E2 core-forming domain, tE2 (225-458), separately expressed (domain or fragment, UniProt P20285 225-458, looked up)
chain: AAYTDVPISGMRKTIAARLKESVTENPHFFVSTNLSVSKLLKLRQALNSSADGRYKLSVNDFLIKAMGIASKRVPTVNSSWRDGVIRQFETVDVSVAVATPNGLITPIVKGVEGKGLESISAAVKELAKKARDGKLKPEEYQGGSISISNMGMNPAVQSFTAIINPPQAAILAVGAPQKVAVPVENEDGTTGVSWDEQIIVTASFDHKVVDGAVGAEWIRELKKVIENPLELLL
notes: E2 core-forming domain, Neurospora crassa, residues 225-458 of uniprot P20285; His6 tag is cleavable with thrombin; PDB 6ZLO covers residues 227-458; source: E. coli Rosetta2 (DE3), pRSET vector, single expression
Regarding B1, the binding result in series [1] and in series [2] was “binds” in each case.

B2: N. crassa E2 core-forming domain, tE2 (225-458), untagged, co-expressed with PX constructs (domain or fragment, UniProt P20285 225-458, looked up)
chain: AAYTDVPISGMRKTIAARLKESVTENPHFFVSTNLSVSKLLKLRQALNSSADGRYKLSVNDFLIKAMGIASKRVPTVNSSWRDGVIRQFETVDVSVAVATPNGLITPIVKGVEGKGLESISAAVKELAKKARDGKLKPEEYQGGSISISNMGMNPAVQSFTAIINPPQAAILAVGAPQKVAVPVENEDGTTGVSWDEQIIVTASFDHKVVDGAVGAEWIRELKKVIENPLELLL
notes: E2 core-forming domain, Neurospora crassa, residues 225-458 of uniprot P20285; also called untagged E2 core-forming domain; source: E. coli Rosetta2 (DE3), petDuet dual-expression vector, co-expressed with His-tagged PX constructs, in lysate; co-purified on Ni-NTA
Take B2: in series [3], the binding result is “binds”.

B3: Neurospora crassa pyruvate dehydrogenase complex E2 (endogenous, core of the native PDC) (enzyme, UniProt P20285 29-458, looked up)
chain: ASYPPHTVVKMPALSPTMTSGGIGAWQKKPGDKIEPGEVLVEIETDKAQMDFEFQEEGVLAKILKDSGEKDVAVGNPIAILVEEGTDVNAFKDFTLKDAGGETSPAVPKDEPKNESTASAPTPAPTPAPEPENTSFTGRFQTALEREPNALPAAKRLAREKGIDLRNVKGSGPGGKITEEDVKKALASAPAAGAAAAAYTDVPISGMRKTIAARLKESVTENPHFFVSTNLSVSKLLKLRQALNSSADGRYKLSVNDFLIKAMGIASKRVPTVNSSWRDGVIRQFETVDVSVAVATPNGLITPIVKGVEGKGLESISAAVKELAKKARDGKLKPEEYQGGSISISNMGMNPAVQSFTAIINPPQAAILAVGAPQKVAVPVENEDGTTGVSWDEQIIVTASFDHKVVDGAVGAEWIRELKKVIENPLELLL
notes: E2 of the pyruvate dehydrogenase complex, Neurospora crassa, uniprot P20285; residues 232-458 identified in the native reconstruction; Icosahedral core of 60 E2 in the native complex; only the core-forming domain is ordered in the map; also called E2 core; PDC core; source: endogenous, PDC purified from N. crassa mitochondria (DDM lysis, sucrose cushion, sucrose gradient, SEC); copies: 60
B3: the entries for the “stoichiometry N” value in series [4] and in series [5] were no more than 12 PX monomers per E2 core and 60, respectively.
